# In patent US5580760, “FUSE binding protein and cDNA therefor” (The United States of America as represented by the …):
# B1: FUSE (dsDNA)
# DNA 1: GATCACAAAATAAAAAATCCCGAGGGAATATAG
# DNA 2: CTATATTCCCTCGGGATTTTTTATTTTGTGATC
# Tests used:
# [1] = target: FBP full length (CMV expression) (Homo sapiens) (UniProt Q96AE4); assay: cell_activity; conditions: CAT activation vs empty vector, U937 cells
# [2] = target: GST alone (UniProt P08515 P08515:1-218); assay: EMSA; GST control; conditions: tags: pGEX-2T without insert; label: 5'-32P
# Procedure: Purified recombinant proteins were incubated with double stranded, ^32P labeled, oligonucleotide (Probe) in the presence or absence of the indicated quantity of unlabeled, double stranded oligonucleotide as competitor, and subjected to EMSA. (M. Fried and D. M. Crothers, *Nucleic Acids Res.* 9, 6505 (1981)).
# DNA binding assays were performed with an equivalent amount of GST-FBP or GST alone incubated in 25 mM Tris, 200 mM Glycine, 1 mM EDTA, 0.5 mg/ml BSA, 0.1% Tween20, 10% glycerol, 100 µg/ml poly(dI:dC), and 0.2 ng of labeled probe. The probe was prepared by annealing two complementary synthetic oligonucleotides and 5' end labeling with T_4 polynucleotide kinase in the presence of γ-^32P-ATP. The top strand of the FUSE oligonucleotide was 5'-[…]-3'(SEQ ID NO: 11). The top strand of Mut A was 5'-GATCACAActacgtgctaggacgccGAATATAG-3' (SEQ ID NO: 12) (lower case indicates changes from FUSE oligomer sequence). The top strand of CRE was 5'-[…]-3' (SEQ ID NO: 13). The top strand of CTE was 5'-[…]-3' (SEQ ID NO: 14). Reaction mixtures were incubated 30 minutes at room temperature and protein-DNA complexes resolved by electrophoresis on a 4.2% acrylamide gel in 25 mM Tris, 200 mM Glycine, 1 mM EDTA buffer.
# [3] = target: GST-FBP 278-511 (Homo sapiens, UniProt Q96AE4 SEQ:278-511); assay: EMSA; same specificity as full length (FIG. 6C); conditions: tags: N-terminal GST (pGEX-1); C-terminal KEIEQKVQE; label: 5'-32P
# [4] = target: GST-FBP 278-511 insertion mutant 7 (Homo sapiens, UniProt Q96AE4 SEQ:278-511, insertion RIR after 373); assay: EMSA; conditions: tags: N-terminal GST; C-terminal KEIEQKVQE; label: 5'-32P
# [5] = target: GST-FBP 278-372 (Homo sapiens, UniProt Q96AE4 SEQ:278-372); assay: EMSA; conditions: tags: N-terminal GST; label: 5'-32P
# [6] = target: GST-FBP 278-511 insertion mutant 2 (Homo sapiens, UniProt Q96AE4 SEQ:278-511, insertion IGSRIR after M297); assay: EMSA; conditions: tags: N-terminal GST; C-terminal KEIEQKVQE; label: 5'-32P
# [7] = target: GST-FBP 278-474 (Homo sapiens, UniProt Q96AE4 SEQ:278-474); assay: EMSA; conditions: tags: N-terminal GST; label: 5'-32P
# [8] = target: GST-FBP 278-511 insertion mutant 5 (Homo sapiens, UniProt Q96AE4 SEQ:278-511, insertion GIP after 336); assay: EMSA; conditions: tags: N-terminal GST; C-terminal KEIEQKVQE; label: 5'-32P
# [9] = target: GST-FBP 278-511 insertion mutant 1 (Homo sapiens, UniProt Q96AE4 SEQ:278-511, insertion RIR between GST and FBP); assay: EMSA; conditions: tags: N-terminal GST; C-terminal KEIEQKVQE; label: 5'-32P
# [10] = target: GST-FBP 278-511 insertion mutant 9 (Homo sapiens, UniProt Q96AE4 SEQ:278-511, insertion RGSG with deletion of P after 475); assay: EMSA; conditions: tags: N-terminal GST; C-terminal KEIEQKVQE; label: 5'-32P
# [11] = target: GST-FBP 278-511 insertion mutant 8 (Homo sapiens, UniProt Q96AE4 SEQ:278-511, insertion RDPA with deletion of QS after 404); assay: EMSA; conditions: tags: N-terminal GST; C-terminal KEIEQKVQE; label: 5'-32P
# [12] = target: GST-FBP 278-511 insertion mutant 4 (Homo sapiens, UniProt Q96AE4 SEQ:278-511, Q333 replaced by PRIRE); assay: EMSA; conditions: tags: N-terminal GST; C-terminal KEIEQKVQE; label: 5'-32P
# [13] = target: GST-FBP 278-511 insertion mutant 3 (Homo sapiens, UniProt Q96AE4 SEQ:278-511, insertion IRIR after M297); assay: EMSA; conditions: tags: N-terminal GST; C-terminal KEIEQKVQE; label: 5'-32P
# [14] = target: GST-FBP 298-511 (Homo sapiens, UniProt Q96AE4 SEQ:298-511); assay: EMSA; conditions: tags: N-terminal GST; C-terminal KEIEQKVQE; label: 5'-32P
Molecule,activity [1],binding result [2],binding result [3],binding result [4],binding result [5],binding result [6],binding result [7],binding result [8],binding result [9],binding result [10],binding result [11],binding result [12],binding result [13],binding result [14]
myc-CAT reporter with FUSE,5 fold,–,–,–,–,–,–,–,–,–,–,–,–,–
B1,–,no binding,binds,binds,no binding,no binding,binds,no binding,binds,binds,no binding,no binding,no binding,no binding
